From patent US20260027220A1, “EPHA2 BCL-XL INHIBITOR ANTIBODY-DRUG CONJUGATES AND METHODS OF USE THEREOF” (Novartis AG, priority 2022, published 2026)
One block for each binder: values may come before it.

Key:
[1] = molecular target: T1, cyno EphA2 ectodomain (cyno, UniProt Q1KL86 25-537); test: SPR (Biacore 8k), Fab-capture, 37C, 1:1 model; *low binding signal
T1 construct: extracellular domain
Method: (§1) A human Fab capture method was utilized in order to determine kinetics for the antibodies. […] Each channel has two flow cells. The reference flow cell contained only immobilized anti-Fab, whereas the reaction flow cell captured anti-EphA2 IgG through anti-Fab. HBS-EP+ Buffer, pH 7.6 was used as the running buffer. The soluble human, mouse and cyno EphA2 ectodomain flowed over both flow cells on 8 channels. The EphA2 ectodomain concentration started at 50 nM and was serially diluted at one part to one part (1:1) in the running buffer for six concentrations. The analysis chamber was kept at 37° C. Regeneration was performed at the end of each sample washing with the solution of 10 mM Glycine-HCl, pH 2.1 provided in the kit.
(§2) The data were analysed using the Biacore Insight Evaluation Software. Double reference subtraction was completed to generate the final data. The raw data was fitted to a 1:1 binding model, with parameter(s) Rₘₐₓ set to local.

[2] = molecular target: T1, cyno EphA2 ectodomain; test: SPR (Biacore 8k), Fab-capture, 37C, 1:1 model;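 further: Anti-EphA2 IgG captured via immobilized anti-Fab, soluble EphA2 ectodomain as analyte at six twofold dilutions from 50 nM, HBS-EP+ pH 7.6 running buffer, double reference subtraction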
Method: as §1, §2

T1 sequence (Q1KL86 25-537): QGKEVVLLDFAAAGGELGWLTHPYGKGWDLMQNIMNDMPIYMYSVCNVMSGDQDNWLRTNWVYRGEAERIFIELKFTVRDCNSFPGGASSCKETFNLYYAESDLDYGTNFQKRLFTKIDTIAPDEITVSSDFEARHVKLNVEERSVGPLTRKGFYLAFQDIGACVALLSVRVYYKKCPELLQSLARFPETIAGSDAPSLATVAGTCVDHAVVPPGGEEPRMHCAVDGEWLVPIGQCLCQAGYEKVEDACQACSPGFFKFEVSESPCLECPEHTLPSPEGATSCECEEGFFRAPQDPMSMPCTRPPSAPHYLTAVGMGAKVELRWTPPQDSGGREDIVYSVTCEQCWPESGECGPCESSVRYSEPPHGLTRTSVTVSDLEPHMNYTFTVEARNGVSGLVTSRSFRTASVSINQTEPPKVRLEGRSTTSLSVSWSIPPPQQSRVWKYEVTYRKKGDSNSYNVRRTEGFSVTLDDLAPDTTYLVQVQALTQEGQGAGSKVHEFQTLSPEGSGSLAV

B2: 1C1 ADC (antibody, V domains shown)
VH: EVQLLESGGGLVQPGGSLRLSCAASGFTFSHYMMAWVRQAPGKGLEWVSRIGPSGGPTHYADSVKGRFTISRDNSKNTLYLQMNSLRAEDTAVYYCAGYDSGYDYVAVAGPAEYFQHWGQGTLVTVSS
VL: DIQMTQSPSSLSASVGDRVTITCRASQSISTWLAWYQQKPGKAPKLLIYKASNLHTGVPSRFSGSGSGTEFSLTISGLQPDDFATYYCQQYNSYSRTFGQGTKVEIK
modifications: antibody-drug conjugate; linker-payload and conjugation sites not stated for this sample
notes: Antibody-drug conjugate of 1C1; also called XD-01-KE85
Kd [2]: 220 nM

B3: LC Germ (1C1) (antibody, V domains shown)
VH: B2 VH
VL: B2 VL
notes: also called lots BA-71-QS06, HE-38-AZ34
Kd [2]: 224 nM

Further lines, results first:

Kd [1]: 196 nM
B1: anti-EphA2 E152C S375C 1C1 (LC S10T) hIgG1 (WT Heavy Chain) (antibody, V domains shown)
VH: B2 VH
VL: DIQMTQSPSTLSASVGDRVTITCRASQSISTWLAWYQQKPGKAPKLLIYKASNLHTGVPSRFSGSGSGTEFSLTISGLQPDDFATYYCQQYNSYSRTFGQGTKVEIKR
notes: also called BB-60-FO04

Kd [2]: 265 nM
B4: anti-EphA2 IgG antibody 1C1 (antibody, V domains shown)
VH: B2 VH
VL: B2 VL
notes: Tested as IgG; also called 1C1 WT IgG; iProt 120126
